Earlier results on 1 substance are cited in patent publication US6194458A, “Benzamide potassium channel inhibitors” (Merck & Co., Inc., priority 1999, dated 2001).

The target in this series is T1, Kv 1.3 channels (Homo sapiens, UniProt P22001).
T1 construct: expressed in transfected cells; host or cells: CHO cells
The following applies: blocker of Kv 1.3 channels; CHO cells transfected with Kv 1.3; stated in the method description.

T1 sequence (P22001 whole entry): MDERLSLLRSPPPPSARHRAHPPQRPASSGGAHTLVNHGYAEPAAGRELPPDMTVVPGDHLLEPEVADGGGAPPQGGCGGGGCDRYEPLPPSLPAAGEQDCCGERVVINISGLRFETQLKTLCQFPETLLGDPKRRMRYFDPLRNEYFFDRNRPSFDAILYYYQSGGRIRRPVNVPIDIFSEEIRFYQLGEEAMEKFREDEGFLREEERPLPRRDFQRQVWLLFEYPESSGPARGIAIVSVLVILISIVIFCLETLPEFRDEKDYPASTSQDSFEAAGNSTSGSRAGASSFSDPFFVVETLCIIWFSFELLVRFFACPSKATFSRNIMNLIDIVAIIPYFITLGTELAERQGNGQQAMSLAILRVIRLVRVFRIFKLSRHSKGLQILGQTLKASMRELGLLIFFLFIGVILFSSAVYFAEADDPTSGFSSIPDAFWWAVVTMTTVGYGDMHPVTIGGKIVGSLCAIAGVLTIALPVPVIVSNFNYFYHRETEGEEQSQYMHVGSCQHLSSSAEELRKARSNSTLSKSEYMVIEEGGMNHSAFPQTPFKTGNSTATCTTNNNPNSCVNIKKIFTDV

The term IC50 denotes the point on the concentration scale where inhibition reaches its midpoint. For the substance “margatoxin (TIINVKCTSPKQCLPPCKAQFGQSAGAKCMNGKCKCYPH; UniProt P40755 1-39, looked up)”, the IC50 was 0.1 nM.
